Source: patent publication US20260275317A1, “CHIMERIC ENDOLYSINS WITH ACTIVITY AGAINST STREPTOCOCCI AND STAPHYLOCOCCI” (UNIVERSITEIT GENT, priority 2023, published 2026)

Legend:
[1] = test system: S. dysgalactiae; assay: Turbidity reduction assay (TRA), S. dysgalactiae; format: cell-based, Streptococcus dysgalactiae
Description: (§1) Concerning the time killing assay, an overnight bacterial culture was diluted 1:10 for S. uberis, S. agalactiae-& dysgalactiae or 1:100 for S. aureus in PBS or UHT-pasteurized whole cow's milk. A volume of 10 μL thereof was combined with an equal amount of chimeric endolysin in PBS (or only PBS as negative control) in triplicate and incubated in a covered 96-well microtiter plate at 37° C. for 2 h. The dose was low (i.e. 0.25 μM), but this was chosen to differentiate between less and better performing variants, consequently allowing a ranking. Finally, these fractions were serially diluted 1:10 in PBS. 5 μL of each fraction was spotted on TSA or BHI-agar and incubated overnight at 37° C. The following day, colony forming units (CFU) were counted and converted to CFU/mL to calculate logarithmic reductions in comparison with the negative control. The relative scores were calculated by dividing the observed logarithmic reduction for each endolysin by the maximal reduction observed for that specific condition and strain. Next, this value was divided by the number of conditions and strains tested (i.e., 8=4 bacterial strains×2 conditions (PBS/UHT-milk)). As such, the best performing candidate in each individual assay received a score of 0.125 (=(1/1)/8). […] Turbidity reduction assays were performed by combining 100 μL of overnight grown bacterial cells with an equal volume of purified enzyme at the desired concentration. Bacterial cells were washed with PBS and resuspended in a 1:1 ratio with enzyme to an OD600 of approximately 1.0. Next, the OD600 was measured using a Tecan infinite 200 PRO plate reader (Tecan, Switzerland) every 15 seconds at 37° C., shaking the 96-well plate between each measurement.
(§2) Time killing and turbidity reduction assays were performed as previously described in 1.3.1.

[2] = test system: S. agalactiae; assay: Turbidity reduction assay (TRA), S. agalactiae; format: cell-based, Streptococcus agalactiae
Description: as §1, §2

[3] = test system: S. uberis, S. aureus, S. agalactiae and S. dysgalactiae; assay: 2 h time killing assay in PBS and UHT-milk, relative in vitro scoring; format: cell-based; conditions: 0.25 μM
Description: as §1, with “The dose was low (i.e. 0.25 μM), but this was chosen to differentiate between less and better performing variants, consequently allowing a ranking.” left out
Stationary phase S. uberis 0140J or S. aureus N305 and one randomly chosen clinical isolate of S. uberis, S. aureus, S. agalactiae and S. dysgalactiae were challenged with a final concentration of 0.25 μM endolysin in a 2 h time killing assay (TKA) in both phosphate buffered saline (PBS) and ultra-high temperature pasteurized whole cow's milk (UHT-milk).

[4] = test system: MAC-T cells; format: cell-based, bovine; conditions: 2.5 μM
Description: MAC-T cells were seeded in a 6-well plate at 300.000 cells/well and grown to 100% confluency. Next, cell culture medium was replaced by prewarmed NC5 in DMEM (buffer exchange performed at 4-8° C. by means of a Pierce™ Protein Concentrator PES 10 kDa MWCO) and allowed to incubate during 1 h at 37° C. and 5.0% CO2. DMEM alone served as the negative control. Following incubation, the supernatant was aspirated and cells were washed 5× with prewarmed dPBS. Cells were then harvested, pelleted and washed as previously described, followed by lysis in ice-cold 0.1% triton X-100 (Sigma-Aldrich, USA) in dPBS. The cell lysates were denaturized and subjected to SDS-PAGE before blotting to a nitrocellulose membrane (Novolab, Belgium). The membrane was thereafter incubated during 1 h in dPBSM5 as blocking buffer. Subsequently, the primary antibody being mouse monoclonal IgG anti-HIS5 (Sigma-Aldrich, USA) was added to the blocking buffer at 1:2000 and allowed to incubate under the same conditions for another hour. The nitrocellulose membrane was then washed 3× with dPBST and incubated during 30 min with the secondary antibody being HRP conjugated goat monoclonal anti-mouse IgG (ImTec Diagnostics, Belgium) diluted 1:1000 in dPBST. […]

B1: NC5: chimeric endolysin SEQ ID NO: 17; HIV-1 TAT + PlySs2 CHAP + Ply1081 CW_7 + PlySs9 amidase_3 (protein)
chain: MYGRKKRRQRRRGATTVNEALNNVRAQVGSGVSVGNGECYALASWYERMISPDATVGLGAGVGWVSGAIGDTISAKNIGSSYNWQANGWTVSTSGPFKAGQIVTLGATPGNPYGHVVIVEAVDGDRLTILEQNYGGKRYPVRNYYSAASYRQQVVHYITPPGTVAQSAPNLAGAGIDQLVQETLAGKYGNGEQRKAALGSQYQAVMAVINGKATAPKKTVDQLAQEVIQGKHGNGEDRKKSLGPDYDAVQKRVTEILKGSPSGNIPKTPSDAPKSEVVNSSTEPKTEETGANGKATDTKITKGSGKHLVICGHGQGRTGYDPGAVNAKLGITEAGKVRELSKLMSKYSGQQIDFITEQNVYDYRSITSIGKGYDSITELHFNAFNGSAKGTEVLIQSSLEADKEDMAILSLLSRYFQNRGIKKVDWLYNANQAASRGYTYRLVEIAFIDNEQDMAIFENKKEDIAKGLVSAITGVEVKTIVPSPPSSTVGSSGTPSKSIYLVGDSLRVLPHATHYQTGQKIANWVKGRTYKILQVKNVHQSNSKRAYLLDGIKSWVLEQDVEGTTKGHSKYHHHHHH
lysis speed (ΔOD600/min)/μM ([1]; S. dysgalactiae 1, 0.3 μM): 0.25 (ΔOD600/min)/μM
ΔOD600 ([1]; S. dysgalactiae 1, 1 h, 0.3 μM): 0.48
lysis speed (ΔOD600/min)/μM ([1]; S. dysgalactiae 2, 0.3 μM): 0.30 (ΔOD600/min)/μM
ΔOD600 ([1]; S. dysgalactiae 2, 1 h, 0.3 μM): 0.66
lysis speed (ΔOD600/min)/μM ([1]; S. dysgalactiae 3, 0.3 μM): 0.25 (ΔOD600/min)/μM
ΔOD600 ([1]; S. dysgalactiae 3, 1 h, 0.3 μM): 0.51
ΔOD, reductions up to ([1]; three clinical S. dysgalactiae isolates, 0.3 μM): ≤ 0.48±0.03
lysis speed (ΔOD600/min)/μM ([2]; S. agalactiae 1, 0.3 μM): 0.15 (ΔOD600/min)/μM
ΔOD600 ([2]; S. agalactiae 1, 1 h, 0.3 μM): 0.42
lysis speed (ΔOD600/min)/μM ([2]; S. agalactiae 2, 0.3 μM): 0.08 (ΔOD600/min)/μM
ΔOD600 ([2]; S. agalactiae 2, 1 h, 0.3 μM): 0.39
lysis speed (ΔOD600/min)/μM ([2]; S. agalactiae 3, 0.3 μM): 0.12 (ΔOD600/min)/μM
ΔOD600 ([2]; S. agalactiae 3, 1 h, 0.3 μM): 0.41
ΔOD600, reductions up to ([2]; three clinical S. agalactiae isolates, 0.3 μM): up to 0.39±0.02
ranking by cumulative relative in vitro score [3]: overall best performing candidates
stability after incubation with MAC-T cells (SDS-PAGE of supernatant) [4]: neither disintegrated nor precipitated after incubation with MAC-T cells
